Data as given in patent US20160083449A1 (FRED HUTCHINSON CANCER RESEARCH CENTER, published 2016).

How the values were obtained:
[1] = molecular target: T1, WT-1^126-134 peptide/MHC tetramer (…, SEQ ID NO.:16, with HLA-A2), PE-conjugated (human); test: flow cytometry of transduced PBMCs; share of tetramer-positive cells within the transduced population (Vβ+ cells minus the endogenous Vβ+ cells of the untransduced control); drawn table
T1 construct: Tetramer reagent used for staining of T cells; the source and the construct of the HLA-A2 monomers are not described; also called WT1 tetramers; WT-1 tetramer

[2] = molecular target: T2, Wilms tumor protein 1 (WT-1) peptide on HLA-A*02:01 (human); test: Kd or kinetics
T2 peptide: RMFPNAPYL

B1: TCRP20, WT-1^126-134-specific TCR of T cell clone P20 (TCR, V domains shown)
V domain 1: QKEVEQNSGPLSVPEGAIASLNCTYSDRGSQSFFWYRQYSGKSPELIMSIYSNGDKEDGRFTAQLNKASQYVSLLIRDSQPSDSATYLCAVLEGQKLLFARGTMLKVDL
V domain 2: DVKVTQSSRYLVKRTGEKVFLECVQDMDHENMFWYRQDPGLGLRLIYFSYDVKMKEKGDIPEGYSVSREKKERFSLILESASTNQTSMYLCATSHQPQHFGDGTRLSILE
modifications: Engineered cysteine pair (alpha T179C, beta S185C, precursor numbering) gives an extra interchain disulfide.
notes: On the T cell clone
[1]
  % transduced Vβ+ tet+: 51.2%

B2: P20 TCR (TCRP20) (TCR, V domains shown)
Valpha: QKEVEQNSGPLSVPEGAIASLNCTYSDRGSQSFFWYRQYSGKSPELIMSIYSNGDKEDGRFTAQLNKASQYVSLLIRDSQPSDSATYLCAVLEGQKLLFARGTMLKVDL
Vbeta: DVKVTQSSRYLVKRTGEKVFLECVQDMDHENMFWYRQDPGLGLRLIYFSYDVKMKEKGDIPEGYSVSREKKERFSLILESASTNQTSMYLCATSHQPQHFGDGTRLSIL
[2]
  binding result: recognises

B3: P1 TCR (TCRP1) (TCR, V domains shown)
Valpha: AQKVTQAQTEISVVEKEDVTLDCVYETRDTTYYLFWYKQPPSGELVFLIRRNSFDEQNEISGRYSWNFQKSTSSFNFTITASQVVDSAVYFCALSEAHRDSNYQLIWGAGTKLIIKP
Vbeta: ETGVTQTPRHLVMGMTNKKSLKCEQHLGHNAMYWYKQSAKKPLELMFVYNFKEQTENNSVPSRFSPECPNSSHLFLHLHTLQPEDSALYLCASSQDEQFLYNEQFFGPGTRLTVL
[2]
  binding result: recognises
